This is an account of results in doi:10.1101/2024.09.05.611430 (bioRxiv, 2024).

Where “and” joins values, the source holds several entries; their conditions need not be identical. Identical values can stand only once.

The data set concerns the molecule itself. Nature of the data set: cryo-EM structure.

B1: Mpn444 (Mycoplasma pneumoniae lipoprotein, recombinant, without the N-terminal signal sequence, aa 28-1325) (natural protein, UniProt P75334 28-1325, looked up)
chain: CAQPTASTVEGLFKPSSAFADRTDFSLSSILQKSLINRESFNQYLAMRLAPVLRTFYEDNYDTDIKERLNGFTADTDNAFVSQEQNLRNQFRENYLVHLQTDIFDNTGGNQAAWKLRDVNNKIIDDFISRIFAKNFVEYVQDGVGPLTKPTKSLIENTSNFKNIKLQPKFVNKNAKLKINNDAVYAAIQDKLLDQFITNENPNLVSRVVFTNETPVDGFDNYFNTKVIQSPTPSYQFQVFNKYNQQSGGTKGANGFNLLASNLKSYKNDQSKGIDIPNKFSSDSGGKLLLKASDMFDTFDPSFSAAFIQGYLALQKKSKGADSKEVDSLIKDKSIIENFFVDNNTQAAAAARAASSSSEGTIQLKTASDGGGTTQSTVHKTDLVKIFGDKDVFAGEYKQQIGNTNANQTGGGGSGGGGGTSTGSSTGSSTETTTGNSSKAVVDLIEVKKDSSSQPDYILSRGKDGIHLMAVDGGSHYLTESGRDVAKQKKFLLFRALQTKYGLVDTDTTYDFKLFDEVKKYFDTNRILFLFEALLDLSSDTNNKDNFLSYPQFKKFADSIKSIEKDLKELVQAHYKQAVFNETAVAENKVTLKLAERNQPFIDNERNNQIEQNGLAAKLPYEQDAKTGHYNDLGNYYKDIIDNVDKKGTSTVKTTSSNTGQTKNFSEEVVSKLKDNKKKVEEAAKKHVEALKVFTIPSPLYSQVILVQTKLSFTPESTSLGLNLALNNYLTSTELQNSIKLSYFQEDEAFKKIIDITNLTFSQQSGGTGGTNGNNNLTADNWKIFKETYLLDLFESQAQKSIFGHVGSSDKNSSTKTGIEGVLDTLYSSLNLEERLDSDDVIDYLSYLYTAHWLLKDNLKNYKQSLQSKLSRTSNAFLVWSVDSEKNKNDSQSTLSSTASSTSNTGLIQLRSVVSLAQNQAAGQGGDNNSDITQTEVKNPNFVFGSSVYDWTNSKTPEVNRAADDTSSFFYTKSSSSSTGAAQSSATVLRSLNQASGMTTKTAKNRYGFRGIVTSSTSGSLPEAVSRRLFKQFVNQTEKGVKVGGQMLITTAKSGKATLVLKQQADDAESTTNNAYKGALFSFGSMDNLKNIINGIQTQTEFDALYNHLTSDLNIDVTGVDKNKTLTEQKTSLTSFVDSNFKQSTQSAQRGDTSARSARSATVQIKKTQEDNQNTNYKDVFSRFDGYIGDNKVEEKNYTSYQFLSDGGKYHATFVKQVNLDDVEKIGTDSLKQEDSSKDKRLNLSLEEFLAAIALEALDPNNQTQAINALISGNKKGLVKVGDFRIFSSISAQWVRRF
Turning to B1, the stoichiometry N – broadly, a count of units in the complex or per binding partner – is 3 and 2.
